Reference: article doi:10.1101/2025.03.18.643936
“And” between values parts separate entries of the source, which are not always exact repeats. Equal entries are not always repeated.

Biological target: the i20S and the s20S (human)
Assay: mass photometry

- Kd, first binding event: 20 nM and 30 nM
Substance: recombinantly expressed and purified human PA200 (from UniProt Q14997 1-1843) (natural protein)
